We go through 140 substances from the supplement of paper PMC12042874.

± gives the uncertainty stated by the source.

A short description of the series: amyloid nucleation score (Sup35N fusion, yeast selection) (log enrichment); library NNK1; higher = more nucleation; inactive = no reads after selection. The gist of the method:
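DiMSum was used to calculate nucleation scores as log enrichment of output over input reads, centred on the mode score of non-aggregating sequences. Sequences with fewer than 100 input reads were not scored. Input and output came from Illumina sequencing of plasmid inserts in psi-negative yeast expressing peptides of 20 random codons fused to Sup35N, induced 24 hours with 100 μM copper sulfate and then grown 7 days at 30°C on medium lacking adenine and uracil.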
VGIILRLVQYSDEYYSCYAG had an amyloid nucleation score of -2.62 ± 2.4. Take YGFSNYRMIVQLYNLFSMYD: the amyloid nucleation score was 3.04 ± 0.21.

Take RVSCFRTRDRIFGVFTQSQV: the amyloid nucleation score is -0.314 ± 1.2. Regarding FGLIATTETRAVSKMNVFDN, the amyloid nucleation score turned out to be 1.56 ± 0.49. Then GQYVWADLINVVRLWVFVSR, with 0.503 ± 0.87; and GMCSEGTFKRQLISMHTCRT, with 0.247 ± 0.79; and PSALFFSVTLKVHINLAISS, with 0.431 ± 0.53.

The substance VVDVSYRNLRRCM yielded an amyloid nucleation score of 0.8 ± 0.36. Then HRNRFYVVLYRNLDLWL, with -0.197 ± 0.23. Substance TLGVMEGRNSDSLTVCRVGS gave an amyloid nucleation score of 1.06 ± 0.5. As for VRFLISHRESVLKSMAGCVV, the amyloid nucleation score came to 0.815 ± 0.93. RRYCKLLVWRQLTSYHGRQA displayed an amyloid nucleation score of 0.527 ± 0.49. Consider SFSEICWVVGHYMNGFSQMR, for which the amyloid nucleation score was 1.89 ± 0.47. For SFDNCLFVVVAAAIVNQPVC, the amyloid nucleation score was 5.83 ± 0.09. The substance CRIIPLYRKFLKHLTCHYIQ came in with an amyloid nucleation score of -0.092 ± 0.25. The substance NVYDMFIKFGVGVASSVSAC yielded an amyloid nucleation score of -1.48 ± 1.9. LRYCNMHHRHDSYGLSSYSY: the amyloid nucleation score came to 2.21 ± 0.11. Substance LLHVYYFFISWPMFCMVYM registered an amyloid nucleation score of -0.203 ± 0.72. Regarding NGIMKIEKYG, the amyloid nucleation score worked out at 0.312 ± 0.79.

Turning to RFHCYWTPRTLSMASSTPWM, the amyloid nucleation score was 0.47 ± 0.45. The result for CPGNIIYTFPIDVPKHG reads 0.641 ± 0.79. As for LYYFCLAINFSLGEGTAFVQ, the amyloid nucleation score was -0.133 ± 0.84. Then WDATLNKITYKRSLVGSVSK, with 0.275 ± 0.58; and VMHYYTSVYDVNYVRYSPPW, with 1.16 ± 0.35; and KSDNVVTRLRLLSAEVQW, with -0.295 ± 0.98. On to FVLGWQI, for which the amyloid nucleation score was 1.63 ± 0.56.

STGPAFDSKGVSTAMSRASF: the amyloid nucleation score result was “inactive”. In turn, INMRKLPSRVSSFKVKCGHR gave an amyloid nucleation score of -0.42 ± 1.7. Substance HVLWGIVLVVIFFW came in with an amyloid nucleation score of -0.151 ± 0.29. In the case of SRGRSNAALSLRKFVGGFCL, the amyloid nucleation score result is “inactive”. Take SSGFVYIYSSKSLGANSKNL: the amyloid nucleation score is -0.176 ± 1. Substance FSNAIKQVFQGYLWTNPW gave an amyloid nucleation score of -0.188 ± 0.3.

As to LCKRNVKCQFL, the amyloid nucleation score was 0.192 ± 0.59. In turn, RMVIMLMGTHDRPFWGITGS registered an amyloid nucleation score of 0.925 ± 0.63.

Turning to MYRMFRSFKFEWYCELWVLS, the amyloid nucleation score is -0.125 ± 0.5. AVQKVRCRWN displayed an amyloid nucleation score of -0.009 ± 0.23. NDHNNLWVNFVGT registered an amyloid nucleation score of 0.575 ± 0.6.

For RDAFYRGRTRFNQRRYMYRR, the amyloid nucleation score was -0.335 ± 0.53. Then YSARLLSERIKWHFTLMMND, with 0.41 ± 0.36; and LYASASADHSRQRREGTPVL, with -0.54 ± 0.59.

Substance VYQKWLG registered an amyloid nucleation score of -0.778 ± 0.46. MGDFND registered an amyloid nucleation score of -1.08 ± 1.4.

In turn, SGIGSMWSQLKDSV registered an amyloid nucleation score of 0.136 ± 0.59. YFSDKVSSAFT registered an amyloid nucleation score of 0.318 ± 0.37. As to LYVMRKSDMMLDFRNAANVG, the amyloid nucleation score was -0.142 ± 0.23. For the substance VGRACRPDWFLFLRRRKGSR, the amyloid nucleation score was -0.344 ± 0.44. SILTSNMGQSHVSMDVLVVW: the amyloid nucleation score result was “inactive”. The result for PYVGPLMNFYHSMGMWWMYN reads “inactive”.

As to RLIYRCLKSGCVFPWLSRMS, the amyloid nucleation score is -0.571 ± 1.1. As to VYMMGGTLLRPYAILSYLDP, the amyloid nucleation score was 0.465 ± 0.3. Substance SKSFGFEYPG had an amyloid nucleation score of -0.002 ± 0.37. YPVVHDM: the amyloid nucleation score was -0.426 ± 0.56. The result for NISCDRGMLG reads “inactive”.

The substance DSLLEIGRSGVNELVGGLAD gave an amyloid nucleation score of -0.422 ± 1.2. Then VRLCIVHHG, with 0.527 ± 0.49.

Substance CNFMVSYRISFMLRLIQYYV returned an amyloid nucleation score of -0.938 ± 0.31.

For NKTVVLDHPHVCFPGSRSHL, the amyloid nucleation score entry was “inactive”. Substance AQTWGESKTLPENLANYDAY yielded an amyloid nucleation score of 0.241 ± 0.56.

In turn, GSGWEGSTVRFSQASFGELW yielded an amyloid nucleation score of 0.328 ± 0.97.

In turn, GLMNSRYMYVVNMS registered an amyloid nucleation score of 0.758 ± 0.4. SARRRRYGEAGSLGHELQWT returned an amyloid nucleation score of 0.675 ± 0.78.

As for VAMRIWLVNACLGG, the amyloid nucleation score came out at 0.092 ± 0.63. RNNIFFF: the amyloid nucleation score is 7.399 ± 0.059. In the case of FIHAMAMCILGEHSI, the amyloid nucleation score is 0.686 ± 0.47. AGFLS returned an amyloid nucleation score of -0.388 ± 0.62.

HAFSSCDYSHYVFGMRPFDL came in with an amyloid nucleation score of 1.51 ± 0.15.

Regarding ATCCNSWIAF, the amyloid nucleation score amounted to 7.035 ± 0.054. For MEMLGGNRL, the amyloid nucleation score is 1.23 ± 0.36. YVVIAEPGYSRDMISLMERC came in with an amyloid nucleation score of -1.16 ± 1.3.

As to SAPMVFESDPREFAAGMSRL, the amyloid nucleation score was -0.53 ± 0.39. The substance RIGVLNCWEVWADVTQREHL showed an amyloid nucleation score of -0.769 ± 1.1.

As to FLLAPTLL, the amyloid nucleation score is -0.367 ± 1. In turn, VNSLVVLF showed an amyloid nucleation score of 1.84 ± 0.23. The substance HLLNYIVGL had an amyloid nucleation score of 0.294 ± 0.69. Then RKGSVSQRDYSIDYWGFCRC, with 1.37 ± 0.22; and CACKLVQSIYLCESLGHPRS, with 5.73 ± 0.06. YSKIRNKSRFRNLSASFQRC: the amyloid nucleation score result is “inactive”. In turn, IDTNCRNCGYREFASKCELR yielded an amyloid nucleation score of 0.456 ± 0.26. SFLCAFICHYTDVFVHLARS gave an amyloid nucleation score of 1.49 ± 0.54. Then SLVLSSFPLLIDNSSIESLV, with -0.82 ± 0.42; and GRYWSCEATRLCKYFGCTMR, with -0.212 ± 0.48. The result for RKFGPMG reads 0.848 ± 1. Consider DLLTWDCLEHDVDMLLVGPN, for which the amyloid nucleation score amounted to 0.152 ± 0.36.

FLSSCDGGLIGMHGTGFTAQ: the amyloid nucleation score was 0.426 ± 0.45. Consider CCLHSAFSNNARILFMALRS, for which the amyloid nucleation score is 0.861 ± 0.84. YNRIIYYCGVM had an amyloid nucleation score of 0.782 ± 0.97. The result for TYSWEDCTYGITPSGTYRSN reads 1.33 ± 0.38; that for GIFHANLTMVWRHIEVKEGC, 0.696 ± 0.92; that for KDCCMLDIYVEAWSGSFGRK, 1.44 ± 0.2. In turn, EVATGSGERIQLCQVQSVNT yielded an amyloid nucleation score of 1.6 ± 0.55. Substance NNKGSLSPGNLDTSDESEFS returned an amyloid nucleation score of 0.652 ± 0.29.

Substance LRMKANYVTSAFNRCVLLLG came in with an amyloid nucleation score of 0.425 ± 0.41.

In turn, EHKWAANLDDMVHLDRHNMQ had an amyloid nucleation score of 0.435 ± 0.72.

Take LRIFSA: the amyloid nucleation score is 1.22 ± 0.8.

In the case of DRFNCKCFVLSKVLCWYGVG, the amyloid nucleation score came out at 0.851 ± 0.79. Then IMTSWFLPQSCQNDWDKLY, with -0.012 ± 0.2; and SLLFY, with “inactive”; and LGAQGLFVYSLLCQT, with -0.126 ± 0.68.

CILAGGSSVGLNCVGMSTCG came in with an amyloid nucleation score of 0.438 ± 0.8. As for VSFNCTNGFRIKHVLWSTDN, the amyloid nucleation score amounted to 1.09 ± 0.17.

Turning to RFLLLPAHPGPGVSMVYRYL, the amyloid nucleation score worked out at 0.077 ± 0.9.

Consider LTHVIGIPRQPCEPLVHLYG, for which the amyloid nucleation score was -0.745 ± 2.4. CLVFWETECSA showed an amyloid nucleation score of -0.323 ± 0.29. LDSGQAPSMLLWGSNYWEKL showed an amyloid nucleation score of 0.808 ± 0.9. Regarding LFHRIV, the amyloid nucleation score is -0.353 ± 0.54. For VYATSSIKIAVPVLHQAVLP, the amyloid nucleation score came to 3.14 ± 0.096. MVTGTSHPLQYMLSGSSTKY had an amyloid nucleation score of -0.436 ± 0.45.

Consider AACLCLYAFGRYVVTRCYGR, for which the amyloid nucleation score was -0.068 ± 0.69. In turn, FVKGRGNKTQVWHESVYKDA came in with an amyloid nucleation score of -0.203 ± 0.54. In the case of VNIRRRTLFS, the amyloid nucleation score came out at 0.023 ± 0.3. In turn, QSISYR showed an amyloid nucleation score of -0.956 ± 0.7. VCYCLKWEAMSVKLLCMGCA returned an amyloid nucleation score of -0.688 ± 0.6.

In the case of TMSRQHKTGPNGSRAL, the amyloid nucleation score was -0.073 ± 0.79. Then LFGKRCGHGQCQDHWKAVCV, with -0.008 ± 0.61; and SCLAIRTSYCNEELSIESMQ, with -0.8 ± 0.55; and IGVRRFFLWS, with -0.753 ± 0.48. Regarding GLNCSGNGEVIWQP, the amyloid nucleation score is -0.403 ± 1.4. The substance IKLGVFRIKSSFN returned an amyloid nucleation score of 0.708 ± 0.34. The substance WRWYEGGLTLSWSHASSA displayed an amyloid nucleation score of -0.536 ± 0.98. As to HGIFEGRITVILKGY, the amyloid nucleation score is 4.05 ± 0.15. SWCPSQEWFMRYVFSTMCRT displayed an amyloid nucleation score of 0.302 ± 0.57. Then GGELMAFTA, with 0.553 ± 0.49; and LMFGLAMVNENPRGLSELRR, with 0.065 ± 0.27. Then CERLKT, with 0.784 ± 0.35. With WKIRKKA, the amyloid nucleation score turned out to be 0.155 ± 0.7. Then SCGVLVSLFLYPKLNFGFYL, with 0.419 ± 0.4.

MADEWLCQKCGSRVT: the amyloid nucleation score is -0.207 ± 0.59.

In turn, TTIAIRVLFQIVMVVSESRS returned an amyloid nucleation score of -0.247 ± 0.24. Then NGKDFWMSGRYAYVSMHFDR, with 1.13 ± 0.31; and NMINLMGTKVDMYCRRVRGI, with -1.53 ± 0.84. Regarding VRVFGVTEYNRSCSI, the amyloid nucleation score was -0.847 ± 1.1.

VRYFCTFLWWSTIRQAQYNI: the amyloid nucleation score is 0.218 ± 0.78. YVWDFRKLLYPAGWMSESVR had an amyloid nucleation score of -0.346 ± 1. Then PRIRSPEMDVMSPPNFLWGL, with 0.213 ± 0.48; and ANWCF, with -0.213 ± 0.5. Turning to YFSTRKYTSKGYCVRTLFAY, the amyloid nucleation score was -0.406 ± 0.27. As to VAWPRGPVKARGIYISGRIC, the amyloid nucleation score result is “inactive”. The substance FSIKHPLSSGSKISCVA gave an amyloid nucleation score of -1.23 ± 1.7. As to WLISLFRDDDRFNKVSKRAA, the amyloid nucleation score was -0.3 ± 0.38.

For KSRWHMLLNS, the amyloid nucleation score stood at 0.051 ± 0.72.
